Earlier results, collected in PMC3686100.

Molecular target: ClpP (Escherichia coli) (UniProt P0A6G7)
Chain of UniProt P0A6G7 (P0A6G7 15-207): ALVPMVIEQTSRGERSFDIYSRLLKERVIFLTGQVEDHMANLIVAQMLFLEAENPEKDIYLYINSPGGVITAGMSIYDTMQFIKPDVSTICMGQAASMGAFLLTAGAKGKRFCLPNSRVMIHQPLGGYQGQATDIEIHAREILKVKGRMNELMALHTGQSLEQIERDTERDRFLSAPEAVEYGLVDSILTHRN

ClpX (from UniProt P0A6H1)
Kd: 0.09 µM
